T1: FGFR1-Fc (Z03223, Genscript) (UniProt P11362 22-376)
T1 construct: fibroblast growth factor receptor 1 part of a bought Fc fusion; also called FGFR1 homodimer; FGFR1/FGFR1; source: bought: Genscript (Z03223)
T1 sequence (looked up): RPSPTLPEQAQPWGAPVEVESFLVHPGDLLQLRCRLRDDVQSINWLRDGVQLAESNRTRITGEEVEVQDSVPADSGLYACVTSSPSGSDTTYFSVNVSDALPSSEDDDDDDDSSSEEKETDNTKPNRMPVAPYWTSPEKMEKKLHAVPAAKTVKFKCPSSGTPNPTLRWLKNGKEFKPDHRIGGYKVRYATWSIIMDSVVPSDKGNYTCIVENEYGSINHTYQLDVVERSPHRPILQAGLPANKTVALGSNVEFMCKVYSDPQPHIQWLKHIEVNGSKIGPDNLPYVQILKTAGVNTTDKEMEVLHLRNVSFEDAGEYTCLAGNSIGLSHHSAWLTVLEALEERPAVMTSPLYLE

B1: Human VEGF-B167 (ligand, UniProt P49765-2 22-188, looked up)
chain: PVSQPDAPGHQRKVVSWIDVYTRATCQPREVVVPLTVELMGTVAKQLVPSCVTVQRCGGCCPDDGLECVPTGQHQVRMQILMIRYPSSQLGEMSLEEHSQCECRPKKKDSAVKPDSPRPLCPRCTQHHQRPDPRTCRCRCRRRSFLRCQGRGLELNPDTCRCRKLRR
notes: UniProt P49765 is printed for the VEGF-B167 peptides; Bought recombinant protein; source: bought: PeproTech (100-20B)

What was measured:
Human VEGF-B167 [1] = biological target: B1; assay: SPR; VEGF-B immobilised at 3820 RU on CM5 (the FGF2 surface is not described); FGFR1 DI (18.75-600 nM), DII (3.125-100 nM), DIII (12.5-400 nM), DII-III (25-800 nM) flowed at 10 µl/min
[2] = biological target: FGF2 (BFF-H4117, Acro Biosystems) (UniProt P09038); assay: as above
FGF2 (BFF-H4117, Acro Biosystems) (UniProt P09038), sequence (P09038 143-288): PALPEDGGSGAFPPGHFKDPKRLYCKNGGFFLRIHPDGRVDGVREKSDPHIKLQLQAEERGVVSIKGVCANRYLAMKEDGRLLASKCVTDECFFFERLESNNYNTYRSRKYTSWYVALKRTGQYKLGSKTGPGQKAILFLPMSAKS

Human VEGF-B167 [3] = biological target: B1; assay: SPR; VEGF-B immobilised at 3820 RU on CM5 (the VEGF-C surface is not described); heterodimer proteins flowed at 1.875-60 nM, 10 µl/min; settings: both partners purified
[4] = biological target: T1, FGFR1-Fc (Z03223, Genscript); assay: SPR; BIAcore 8000; VEGF-B, FGF2 or PlGF immobilised (5389, 1860, 4700 RU) on CM5 by amine coupling; FGFR1-Fc flowed at 12.5-400 nM, 30 µl/min; 1:1 binding model, KD = kd/ka; settings: both partners purified
[5] = biological target: T2, FGF2 (BFF-H4117, Acro Biosystems) (UniProt P09038 143-288); assay: SPR; VEGF-B immobilised at 3820 RU on CM5 (the FGF2 surface is not described); FGFR1 DI (18.75-600 nM), DII (3.125-100 nM), DIII (12.5-400 nM), DII-III (25-800 nM) flowed at 10 µl/min; settings: both partners purified
T2 construct: fibroblast growth factor 2 (basic FGF); Immobilised on the CM5 chip for SPR; also called basic FGF; fibroblast growth factor 2; source: bought: Acro Biosystems (BFF-H4117)
T2 sequence (P09038 143-288): as above

Kd (Human VEGF-B167 [1]) | Kd [2] | Molecule | further results
101 nM | 71 nM | FGFR1 DII (domain or fragment) | 
49 nM | 63 nM | FGFR1 DII-III (domain or fragment) | 
64 nM | 43 nM | FGFR1 DIII (domain or fragment) | 
 |  | VEGFR1 ECD-L-FGFR1 ECD (other) SKLKDPELSLKGTQHIMQAGQTLHLQCRGEAAHKWSLPEMVSKESERLSITKSACGRNGKQFCSTLTLNTAQANHTGFYSCKYLAVPTSKKKETESAIYIFISDTGRPFVEMYSEIPEIIHMTEGRELVIPCRVTSPNITVTLKKFPLDTLIPDGKRIIWDSRKGFIISNATYKEIGLLTCEATVNGHLYKTNYLTHRQTNTIIDVQISTPRPVKLLRGHTLVLNCTATTPLNTRVQMTWSYPDEKNKRASVRRRIDQSNSHANIFYSVLTIDKMQNKDKGLYTCRVRSGPSFKSVNTSVHIYDKAFITVKHRKQQVLETVAGKRSYRLSMKVKAFPSPEVVWLKDGLPATEKSARYLTRGYSLIIKDVTEEDAGNYTILLSIKQSNVFKNLTATLIVNVKPQIYEKAVSSFPDPALYPLGSRQILTCTAYGIPQPTIKWFWHPCNHNHSEARCDFCSNNEESFILDADSNMGNRIESITQRMAIIEGKNKMASTLVVADSRISGIYICIASNKVGTVGRNISFYITDVPNGFHVNLEKMPTEGEDLKLSCTVNKFLYRDVTWILLRTVNNRTMHYSISKQKMAITKEHSITLNLTIMNVSLQDSGTYACRARNVYTGEEILQKKEITIRDQEAPYLLRNLSDHTVAISSSTTLDCHANGVPEPQITWFKNNHKIQQEPGIILGPGSSTLFIERVTEEDEGVYHCKATNQKGSVESSAYLTVQGTSDKSNLERPSPTLPEQAQPWGAPVEVESFLVHPGDLLQLRCRLRDDVQSINWLRDGVQLAESNRTRITGEEVEVQDSVPADSGLYACVTSSPSGSDTTYFSVNVSDALPSSEDDDDDDDSSSEEKETDNTKPNRMPVAPYWTSPEKMEKKLHAVPAAKTVKFKCPSSGTPNPTLRWLKNGKEFKPDHRIGGYKVRYATWSIIMDSVVPSDKGNYTCIVENEYGSINHTYQLDVVERSPHRPILQAGLPANKTVALGSNVEFMCKVYSDPQPHIQWLKHIEVNGSKIGPDNLPYVQILKTAGVNTTDKEMEVLHLRNVSFEDAGEYTCLAGNSIGLSHHSAWLTVLEALEERPAVMTSPLYLE | Kd (Human VEGF-B167 [3]): 1.4 nM
 |  | B1 | Kd [4]: 17 nM
 |  | FGFR1 DI (domain or fragment) PTLPEQAQPWGAPVEVESFLVHPGDLLQLRCRLRDDVQSINWLRDGVQLAESNRTRITGEEVEVQDSVPADSGLYACVTSSPSGSDTTYFSVNVS | Kd (Human VEGF-B167 [1]; both partners purified): 532 nM; Kd [5]: 245 nM
 |  | FGFR1 ECD-L-VEGFR1 ECD (other) RPSPTLPEQAQPWGAPVEVESFLVHPGDLLQLRCRLRDDVQSINWLRDGVQLAESNRTRITGEEVEVQDSVPADSGLYACVTSSPSGSDTTYFSVNVSDALPSSEDDDDDDDSSSEEKETDNTKPNRMPVAPYWTSPEKMEKKLHAVPAAKTVKFKCPSSGTPNPTLRWLKNGKEFKPDHRIGGYKVRYATWSIIMDSVVPSDKGNYTCIVENEYGSINHTYQLDVVERSPHRPILQAGLPANKTVALGSNVEFMCKVYSDPQPHIQWLKHIEVNGSKIGPDNLPYVQILKTAGVNTTDKEMEVLHLRNVSFEDAGEYTCLAGNSIGLSHHSAWLTVLEALEERPAVMTSPLYLESKLKDPELSLKGTQHIMQAGQTLHLQCRGEAAHKWSLPEMVSKESERLSITKSACGRNGKQFCSTLTLNTAQANHTGFYSCKYLAVPTSKKKETESAIYIFISDTGRPFVEMYSEIPEIIHMTEGRELVIPCRVTSPNITVTLKKFPLDTLIPDGKRIIWDSRKGFIISNATYKEIGLLTCEATVNGHLYKTNYLTHRQTNTIIDVQISTPRPVKLLRGHTLVLNCTATTPLNTRVQMTWSYPDEKNKRASVRRRIDQSNSHANIFYSVLTIDKMQNKDKGLYTCRVRSGPSFKSVNTSVHIYDKAFITVKHRKQQVLETVAGKRSYRLSMKVKAFPSPEVVWLKDGLPATEKSARYLTRGYSLIIKDVTEEDAGNYTILLSIKQSNVFKNLTATLIVNVKPQIYEKAVSSFPDPALYPLGSRQILTCTAYGIPQPTIKWFWHPCNHNHSEARCDFCSNNEESFILDADSNMGNRIESITQRMAIIEGKNKMASTLVVADSRISGIYICIASNKVGTVGRNISFYITDVPNGFHVNLEKMPTEGEDLKLSCTVNKFLYRDVTWILLRTVNNRTMHYSISKQKMAITKEHSITLNLTIMNVSLQDSGTYACRARNVYTGEEILQKKEITIRDQEAPYLLRNLSDHTVAISSSTTLDCHANGVPEPQITWFKNNHKIQQEPGIILGPGSSTLFIERVTEEDEGVYHCKATNQKGSVESSAYLTVQGTSDKSNLE | Kd (Human VEGF-B167 [3]): 3.7 nM
